Where no end group is shown, it is not given here. [ ]: non-standard residue; d: D form. Aib = CC(C)(N)C(=O)O
B1: dgc020 (peptide)
peptide: HXQGTFTSDYSKYLEERAAKEFIAWLEGEG
HELM: PEPTIDE1{H.[Aib].Q.G.T.F.T.S.D.Y.S.K.Y.L.E.E.R.A.A.K.E.F.I.A.W.L.E.G.E.G.[am]}|PEPTIDE2{[CCCCCCCCCCCCCCCC(=O)[*:2]].[gGlu].[gGlu]}$PEPTIDE1,PEPTIDE2,20:R3-3:R2$$$V2.0; N-terminus assumed
SMILES: CCCCCCCCCCCCCCCC(=O)N[C@@H](CCC(=O)N[C@@H](CCC(=O)NCCCC[C@H](NC(=O)[C@H](C)NC(=O)[C@H](C)NC(=O)[C@H](CCCNC(=N)N)NC(=O)[C@H](CCC(=O)O)NC(=O)[C@H](CCC(=O)O)NC(=O)[C@H](CC(C)C)NC(=O)[C@H](Cc1ccc(O)cc1)NC(=O)[C@H](CCCCN)NC(=O)[C@H](CO)NC(=O)[C@H](Cc1ccc(O)cc1)NC(=O)[C@H](CC(=O)O)NC(=O)[C@H](CO)NC(=O)[C@@H](NC(=O)[C@H](Cc1ccccc1)NC(=O)[C@@H](NC(=O)CNC(=O)[C@H](CCC(N)=O)NC(=O)C(C)(C)NC(=O)[C@@H](N)Cc1c[nH]cn1)[C@@H](C)O)[C@@H](C)O)C(=O)N[C@@H](CCC(=O)O)C(=O)N[C@@H](Cc1ccccc1)C(=O)N[C@H](C(=O)N[C@@H](C)C(=O)N[C@@H](Cc1c[nH]c2ccccc12)C(=O)N[C@@H](CC(C)C)C(=O)N[C@@H](CCC(=O)O)C(=O)NCC(=O)N[C@@H](CCC(=O)O)C(=O)NCC(N)=O)[C@@H](C)CC)C(=O)O)C(=O)O
B2: dgc019 (peptide)
peptide: HXQGTFTSDYSKYLEERAAKEFIAWLEGEG
HELM: PEPTIDE1{H.[Aib].Q.G.T.F.T.S.D.Y.S.K.Y.L.E.E.R.A.A.K.E.F.I.A.W.L.E.G.E.G.[am]}|PEPTIDE2{[CCCCCCCCCCCCCCCC(=O)[*:2]].[gGlu]}$PEPTIDE1,PEPTIDE2,20:R3-2:R2$$$V2.0; N-terminus assumed
SMILES: CCCCCCCCCCCCCCCC(=O)N[C@@H](CCC(=O)NCCCC[C@H](NC(=O)[C@H](C)NC(=O)[C@H](C)NC(=O)[C@H](CCCNC(=N)N)NC(=O)[C@H](CCC(=O)O)NC(=O)[C@H](CCC(=O)O)NC(=O)[C@H](CC(C)C)NC(=O)[C@H](Cc1ccc(O)cc1)NC(=O)[C@H](CCCCN)NC(=O)[C@H](CO)NC(=O)[C@H](Cc1ccc(O)cc1)NC(=O)[C@H](CC(=O)O)NC(=O)[C@H](CO)NC(=O)[C@@H](NC(=O)[C@H](Cc1ccccc1)NC(=O)[C@@H](NC(=O)CNC(=O)[C@H](CCC(N)=O)NC(=O)C(C)(C)NC(=O)[C@@H](N)Cc1c[nH]cn1)[C@@H](C)O)[C@@H](C)O)C(=O)N[C@@H](CCC(=O)O)C(=O)N[C@@H](Cc1ccccc1)C(=O)N[C@H](C(=O)N[C@@H](C)C(=O)N[C@@H](Cc1c[nH]c2ccccc12)C(=O)N[C@@H](CC(C)C)C(=O)N[C@@H](CCC(=O)O)C(=O)NCC(=O)N[C@@H](CCC(=O)O)C(=O)NCC(N)=O)[C@@H](C)CC)C(=O)O

Key:
[1] = biological target: GLP-1 receptor (GLP-1R), stably expressed on HEK293 cells; test: cell-based or functional assay
[2] = biological target: Glucagon receptor (GCGR), stably expressed on HEK293 cells; test: cell-based or functional assay

Binder	GLP-1R (nM EC50), receptor-mediated cAMP production in HEK293 cells [1] [nM]	GCGR (nM EC50), receptor-mediated cAMP production in HEK293 cells [2] [nM]
H[Aib]QGTFTSDYSKYLEERAAKEFIAWLEGEG-NH2 (not fully specified (residue 20); printed as HAibQGTFTSDYSKYLEERAAK*EFIAWLEGEG) [dgc021]	0.382	3.93
HSQGTFTSDYSKYLDERAAKEFIAWLEAGG-NH2 (not fully specified (residue 20); printed as HSQGTFTSDYSKYLDERAAK*EFIAWLEAGG) [dgc001]	1.13	0.806
B1	1.51	0.883
B2	0.792	1.83

Reference: patent publication US20230174608A1 (published 2023)
